Data on five molecules can be found in US20150151000A1 (INDIANA UNIVERSITY RESEARCH AND TECHNOLOGY, published 2015).

Assay [1] addresses CRMP2 (endogenous, rat brain synaptosomes, rat brain lysates and rat dorsal root ganglia lysates) (rat, UniProt P47942 1-572). The experiment in a line: SPOTS peptide array overlaid with rat brain synaptosome fraction, anti-CRMP2 far-Western.
Assay [2] concerns the target T1, CRMP2-His (recombinant collapsin response mediator protein 2, NT647-labeled).
T1 construct: Purified on Talon resin and labeled with NT647 for microscale thermophoresis; also called recombinant CRMP2; NT647-labeled CRMP2
The experiment in a line: microscale thermophoresis, NT647-labeled CRMP2 constant, peptide titrated 0 to 5 µM, Hill fit. A general note: MST reads how a fluorescent partner responds to local heating, with and without ligand.

B1: L1 (CaV2.1) peptide (peptide)
peptide: YMEWISKAEEVILAE
notes: Immobilised 15-mer spot; also called L1 peptide of P/Q (CaV2.1)-type channel
With B1, the binding result in assay [1] is “binds”.

B2: L1 (CaV2.3) peptide (peptide)
peptide: YRAWIDKAEEVMLAE
notes: Immobilised 15-mer spot; also called L1 peptide of R (CaV2.3)-type channel
As for B2, in assay [1], the binding result was “binds”.

B3: L1 (CaV1.2) peptide (peptide)
peptide: YLDWITQAEDIDPEN
notes: Immobilised 15-mer spot; also called L1 peptide of L (CaV1.2)-type channel
On to B3, for which the binding result in assay [1] is “binds”.

B4: Ct-dis peptide (CaV1.2[2014-2028]) (peptide)
peptide: NSSFPSIHCSSWSEE
notes: also called Ct-Dis (CaV1.2 (L)); [2014-2028]; Ct-dis
For the molecule B4, in assay [1], the binding result is “binds”. Moreover, the Kd (in general, a measure of binding affinity in units of concentration) in assay [2] was found to be 640 nM.

B5: L1 peptide (CaV2.2[388-402]) (peptide)
peptide: YLEWIFKAEEVMLAE
notes: 15-mer from the first intracellular loop of CaV2.2; It was immobilised as a spot in the SPOTS array and used as a synthetic peptide in MST; also called L1 (CaV2.2); [388-402]; L1
On to B5, for which, in assay [1], the binding result is given as “binds”. The Kd in assay [2] was found to be 3120 nM.
